The text below walks through data of the DeepSol protein solubility set.

This data set is described as follows: soluble on expression in E. coli; label from the status in PepcDB or PDB records.
Regarding “MIPEQRREQILRQLRKHQVLSVHQLMEMFDCSHMTVRRDIALLEQEGRAHSVTGGVRIASQLHSEPSHQSKAVVELPQKQAMAKLAASLLHADMTVYLDAGTSTLEIVHYIKALSGMTVVTNDFGVAQALMDAPQVTVIHTGGQLDHSNHSCVGGLAVATLRQVVTDVAFISTSSWDLRRGITTPSALKVEVKQVAMQSATQVVLVASSSKYGTFSMYKIAGLEQFDIIISDAALAPAAADGIRKHGVELLLPAQSLEHHHHHH”, the “soluble on expression in E. coli” value is listed as “not soluble”.

Take “MMSDQKDEEEYSHSSNRSEDEDEERTIDNEINRSPNKSYKLGNIIGNGSFGVVYEAICIDTSEQVAIKKVLQDPQYKNRELMIMKNLNHINIIYLKDYYYTESFKKNEKNIFLNVVMEYIPQTVHKYMKYYSRNNQALPMFLVKLYSYQLCRALSYIHSKFICHRDLKPQNLLIDPRTHTLKLCDFGSAKNLLAGQRSVSYICSRFYRAPELMLGSTNYTTHIDLWSLGCIIAEMILGYPIFSGQSSVDQLVRIIQVLGTPTEDQLKEMNPNYADIKFPDVKSKDLRKVFPKGTPDEAINLITQFLKYEPLKRLNPIEALADPFFDELRDPCIKLPKYIDKLPELFNFCKEEIQEMSMECRRKIIPKNVYEEFLMVDE”: the “soluble on expression in E. coli” value was “not soluble”.

On to “MGSDKIHHHHHHMASSSEGVSVLEIECKVVTPMFSRGAAEPKWENGNRVYPFELRPQSIKGVLRFWFRAIAPTVIDIYSLEGLENLSKKEKERWEKEKYKGLKYLEGLIFGSQERKSSFSLEVKVEGESQALGKYMNNRFSFTDDRLKDTKYALYGLYDKSGIYEYLQEGKNFIIILQTANDSIKGIILSLLKLVSTFSGFGAKTRKGFGEFEIVDPKLTRNDYNLVISECQEHIREFVNHHNSSSKVKIKLGRTNFNGIPDFPCFCDYKIFEITKFSGNSPLEVLREVFKVGRNFKGWYPSLKQKMRFSEGDCVKDLVEALEGLLKGRKTEKKIEIPTAVVGLPIQYQNLGRGEIRRLKVIVSSSLRGLGIDDIDGRKASPLFLSVHEGERGKWKLVVLLMRSRVTNDGELITEVKGGKTPSSGIKTIVKEEKDYKNLLEWIKKLGGKEIQGG”, for which the “soluble on expression in E. coli” value is given as “not soluble”.

Regarding “MGSDKIHHHHHHSKATGRGSGGMIGGLVASKVDPDIMSNLINNRPTVLVTGTNGKSTTTRMLAAAMRSTYTVATNEGGDNMDAGIISALLAGRNASHVVLEVDELHVPAAIERLKPDALVLLNLSRDQLDRVGEINKIERVLRDAVRSRPEMTVIANCDDVLVTSVAFDAENVIWVGAGTGWQGESATCPRTESRILHDGRHWSAEKTLLDGRTFARPTPSWEVDGDTIHSPSGDLTLDLNLPGQANRGNAAQAIAASTVFNVPVSSALPAVNSVNNVAGRYSTITVGEHKVHLLLAKNPAGWQEALSMVDRTADGLVIVVNGQVADGEDLSWLWDVRFEDFENLSVKASGERGTDLAVRLTYAEIDHELISNPVDAIAACPPGRIEVLANYTAFRDLKKALEKGTEQ”, the “soluble on expression in E. coli” value is on record as “not soluble”.

Turning to “MFCVRCGSSDSELYEGLCRDCFLEDYSILRIPDRIEVRVCSHCRAKFISGQWLDEGLPDEEIVYRALEDSISWDEPVENPEIELEIMQERGTIYRCLVEVDAEVLGKRLSQEYEVEVRITNTVCPTCSKQSSGYYEAVIQLRADGRELAETEIETADRVVQRTLLKLSRRDKLAYLPQRVEVKEGVDYYIGSHKSARKVVDAIREKLGGITMESPRLMGQDKSTGKGLYRTWISLRLANFRVGDFLSHHNRILAVIDLRKKGVSVRDLETREVKNILWGEYEDMDVVGRADDVKTTTVTSRSPGMIQILHPETFEPVDLEADSYTSTLDIGEQVPVIEIDKRLYIIEDEAEELEHHHHHH”, the “soluble on expression in E. coli” value is “soluble”.

As for “MGSDKIHHHHHHLILNWPQSDSEHLMVSSEQMQNIEKEMFSMGMPVEALMEKVGIGISSWILDRHGLIENGAIVLVGPGHNGGDGLVVARELYMAGVDISIWCPFPLKKQLTQKHFHYAMQIGIENLERKPDSNSDLLWIEALFGLGQSRIISDEIIRLLNSKKTFSPEKLISIDVPAGLDSDNGNIVSNTSCKASSSLTLGLFKSGLIQDSAIDYVGNLERVDIGIPDKILAGFPETQPLRISFSDLSTFVWPMLSKSKSKYQRGRVLVIAGSEKYRGAASLALNGALASGVGSVSAFLPNSVSSALWITHPEVLLLGDLTAFQDGSSDFSKVLNEVDLNRFDSILLGPGLGIADEKDCFGSDLQDFKGLLVLDADAINRLSITSKGWEWLNDREGPTWLTPHLEEFKRLFPLIDCSNPLKAGIEAAKTCSSSVLLKCAHSVISDPEGKTWQIGQVNSSVARTGLGDVLAGFVSGMGASGLASDKKLDTSLLAASALMHAYAGAFSIKGSTASTICTFLGELIKKEST”, the “soluble on expression in E. coli” value is on record as “not soluble”.

“MAQQAPDREKALELAMAQIDKNFGKGSVMRLGEEVRQPISVIPTGSISLDVALGIGGLPRGRVIEIYGPESSGKTTVALHAVANAQAAGGIAAFIDAEHALDPEYAKKLGVDTDSLLVSQPDTGEQALEIADMLVRSGALDIIVIDSVAALVPRAEIEGEMGDSHVGLQARLMSQALRKMTGALNNSGTTAIFINALREKIGVMFGSPETTTGGKALKFYASVRLDVRRIETLKDGTDAVGNRTRVKVVKNKVSPPFKQAEFDILYGQGISREGSLIDMGVEHGFIRKSGSWFTYEGEQLGQGKENARKFLLENTDVANEIEKKIKEKLGIGAVVTAEADDVLPAPVDF”: the “soluble on expression in E. coli” value is given as “soluble”.

Consider “MTTTSAFMLNVRLDNVAVVAIDVPGEKVNTLKAEFATQVRAILKQIRENKALQGVVFISAKADNFIAGADINMIGHCQNAQEAETLARQGQQLMAEIQALPVPVIAAIHGACLGGGLEMALACHRRICTDDVKTVLGLPEVQLGLLPGSGGTQRLPRLVGVSTALDMILTGKQLRARQALKAGLVDDVVPQTILLEAAVELAKKERLAQRTLPVRERILAGPLGRALLFRLVRKKTAQKTQGNYPATERIIDVIETGLAQGSSSGYDAEARAFGELAMTPQSQALRAIFFASTEVKKDPGSDAPPGPLNSVGILGGGLMGGGIAWVTACKGGLPVRIKDINTQGINHALKYSWDLLETKVRRRHIKASERDKQLALISGSTDYRGFSHRDLVIEAVFEDLPLKQQMVAEVEQNCAAHTIFASNTSSLPIGDIAANAARPEQVIGLHFFSPVEKMPLVEVIPHASTSAQTIATTVKLAKKQGKTPIVVSDKAGFYVNRILAPYINEAIRMLTEGERVEHIDAALVKFGFPVGPIQLLDEVGIDTGTKIIPVLEAAYGERFSAPANVVASILNDDRKGRKNGRGFYLYGEKGRKSKKQVDPAIYKLIGVQGQSRLSAQQVAERCVMLMLNEAARCFDEKVIRSARDGDIGAVFGIGFPPFLGGPFRYMDALGPGEMVATLQRLAALYGPRYAPCEQLVRMAERREHFWTNGETDQGN”, for which the “soluble on expression in E. coli” value was “not soluble”.

For “MKIALINENSQAAKNGIIYDALTTVTDKHGYQVFNYGMYGTEGESQLTYVQNGLLASILLTTKAADFVVTGCGTGVGAMLALNSFPGVTCGFASEPTEAYLFSQINGGNALSIPFAKGFGWGAELNLTLIFERLFAEPMGGGYPKERAIPEQRNARILSDLKKITYRDLLAIVKDIDQDFLKETISGAHFQEYFFANAEPSELVTYLKSVLEQ”, the “soluble on expression in E. coli” value was “not soluble”.

“MSLSVAIRVKDLTKKYKLYQKRSERLANAFGKEKNIKEFYALKGVSFEISKGECVGIIGHNGAGKSTLLKLLTGVAFPTSGEIEINGRLASMLELGSGFNPELTGMENIYFNGSLNGLTKEEIDGKLKDILEFADIGNFIEQPVKNYSSGMFARLAFAVAINVDPDILIVDEILSVGDVGFQVKCMEKFNEFKKKGKTILYVSHGLGTVKKFCDRAIWLQKGEVVDDGNSVIVVERYYNLNFNPANIEQLKDHKSDIINSIAVKSNTKNVEYLEKLDLEVEYDLISNDLKDPNIVLEFRKTDYEPGTTRGNDQFVCGINSKDNIKNIPFNLGVNKLKVSLNKVNLVAGVYYIDFVLRDGEEEVYRKINGYSFTLNEGHHHHHH”: the “soluble on expression in E. coli” value is listed as “soluble”.

On to “MIVPGGFPAPVTGSAVAASPPLPTVRLLSLDAHGRVLDWINWQDAACLYARDAVSWTLGEPCMQIHGGVSRLTGERSVLELHPIIAARGHARSRALDPTPTLTNTALFARDSQLCMYCGQHFSRPHLTRDHVMPVSKGGRDSWENVVTACFQCNSRKANRTPQQAHMPLLAVPYRPSWIEHLILSNRNILSDQMAFLRAQLPKRSKLSLLEHHHHHH”, for which the “soluble on expression in E. coli” value is “not soluble”.
